# B1: MKK7 D-site peptide (second D-site) / JNK1 alpha1 (MAPK8 isoform 1) L198A, full length (parent complex)
# chain 1: SQPQRPRPTLQLPLANEAFEQP
# chain 2: MSRSKRDNNFYSVEIGDSTFTVLKRYQNLKPIGSGAQGIVCAAYDAILERNVAIKKLSRPFQNQTHAKRAYRELVLMKCVNHKNIIGLLNVFTPQKSLEEFQDVYIVMELMDANLCQVIQMELDHERMSYLLYQMLCGIKHLHSAGIIHRDLKPSNIVVKSDCTLKILDFGLARTAGTSFMMTPYVVTRYYRAPEVIAGMGYKENVDLWSVGCIMGEMVCHKILFPGRDYIDQWNKVIEQLGTPCPEFMKKLQPTVRTYVENRPKYAGYSFEKLFPDVLFPADSEHNKLKASQARDLLSKMLVIDASKRISVDEALQHPYINVWYDPSEAEAPPPKIPDKQLDEREHTIEEWKELIYKEVMDLEERTKNGVIRGQPSPLAQVQQ
# Variants of: B1
row,screen value,Variant
1,0.299 Z-score of the enrichment rate within one screen of 711 sequences,"chain 1 P8A, chain 1 P13A"
2,0.0948 Z-score of the enrichment rate within one screen of 711 sequences,"chain 1 Q4A, chain 1 R7A"
3,-0.67 Z-score of the enrichment rate within one screen of 711 sequences,"chain 1 P8A, chain 1 L10A"
4,0.344 Z-score of the enrichment rate within one screen of 711 sequences,"chain 1 R5A, chain 1 Q11A"
5,-0.345 Z-score of the enrichment rate within one screen of 711 sequences,"chain 1 R7A, chain 1 L14A"
6,1.41 Z-score of the enrichment rate within one screen of 711 sequences,chain 1 P3I
7,1.22 Z-score of the enrichment rate within one screen of 711 sequences,chain 1 P3D
8,1.59 Z-score of the enrichment rate within one screen of 711 sequences,chain 1 P3V
9,1.46 Z-score of the enrichment rate within one screen of 711 sequences,chain 1 P3F
10,1.46 Z-score of the enrichment rate within one screen of 711 sequences,chain 1 P3N
11,1.81 Z-score of the enrichment rate within one screen of 711 sequences,chain 1 P3M
12,0.9 Z-score of the enrichment rate within one screen of 711 sequences,"chain 1 P3A, chain 1 P6A"
13,0.334 Z-score of the enrichment rate within one screen of 711 sequences,"chain 1 R7A, chain 1 N16A"
14,-0.643 Z-score of the enrichment rate within one screen of 711 sequences,"chain 1 P8A, chain 1 L14A"
15,-0.68 Z-score of the enrichment rate within one screen of 711 sequences,"chain 1 P6A, chain 1 L12A"
16,2.17 Z-score of the enrichment rate within one screen of 711 sequences,chain 1 Q11W
17,1.79 Z-score of the enrichment rate within one screen of 711 sequences,chain 1 Q11N
18,1.43 Z-score of the enrichment rate within one screen of 711 sequences,chain 1 Q11C
19,1.89 Z-score of the enrichment rate within one screen of 711 sequences,chain 1 Q11H
20,0.875 Z-score of the enrichment rate within one screen of 711 sequences,chain 1 Q11G
21,2.41 Z-score of the enrichment rate within one screen of 711 sequences,chain 1 Q11Y
22,2.32 Z-score of the enrichment rate within one screen of 711 sequences,chain 1 Q11T
23,1.51 Z-score of the enrichment rate within one screen of 711 sequences,chain 1 Q11I
24,1.43 Z-score of the enrichment rate within one screen of 711 sequences,chain 1 Q11E
25,-0.374 Z-score of the enrichment rate within one screen of 711 sequences,"chain 1 L10A, chain 1 P13A"

row,screen value,Variant
1,0.351 Z-score of the enrichment rate within one screen of 711 sequences,"chain 1 R5A, chain 1 P6A"
2,-0.406 Z-score of the enrichment rate within one screen of 711 sequences,"chain 1 R5A, chain 1 L14A"
3,0.477 Z-score of the enrichment rate within one screen of 711 sequences,"chain 1 P8A, chain 1 T9A"
4,-0.672 Z-score of the enrichment rate within one screen of 711 sequences,chain 1 L10G
5,-0.668 Z-score of the enrichment rate within one screen of 711 sequences,chain 1 L10S
6,-0.341 Z-score of the enrichment rate within one screen of 711 sequences,chain 1 L10V
7,-0.363 Z-score of the enrichment rate within one screen of 711 sequences,chain 1 L10R
8,-0.671 Z-score of the enrichment rate within one screen of 711 sequences,chain 1 L10N
9,-0.494 Z-score of the enrichment rate within one screen of 711 sequences,chain 1 L10P
10,-0.588 Z-score of the enrichment rate within one screen of 711 sequences,chain 1 L10T
11,-0.392 Z-score of the enrichment rate within one screen of 711 sequences,chain 1 L10A
12,-0.381 Z-score of the enrichment rate within one screen of 711 sequences,"chain 1 L12A, chain 1 P13A"
13,0.293 Z-score of the enrichment rate within one screen of 711 sequences,"chain 1 R5A, chain 1 P8A"
14,0.499 Z-score of the enrichment rate within one screen of 711 sequences,chain 1 P8Q
15,0.971 Z-score of the enrichment rate within one screen of 711 sequences,chain 1 P8W
16,1.88 Z-score of the enrichment rate within one screen of 711 sequences,chain 1 P8L
17,0.845 Z-score of the enrichment rate within one screen of 711 sequences,chain 1 P8I
18,2.24 Z-score of the enrichment rate within one screen of 711 sequences,chain 1 P8M
19,1.01 Z-score of the enrichment rate within one screen of 711 sequences,chain 1 P8K
20,0.848 Z-score of the enrichment rate within one screen of 711 sequences,chain 1 P8V
21,0.584 Z-score of the enrichment rate within one screen of 711 sequences,chain 1 P8N
22,1.67 Z-score of the enrichment rate within one screen of 711 sequences,chain 1 P8F
23,0.83 Z-score of the enrichment rate within one screen of 711 sequences,chain 1 P8C
24,-0.162 Z-score of the enrichment rate within one screen of 711 sequences,"chain 1 R5A, chain 1 R7A"
25,1.52 Z-score of the enrichment rate within one screen of 711 sequences,chain 1 N16L

row,screen value,Variant
1,1.29 Z-score of the enrichment rate within one screen of 711 sequences,chain 1 N16A
2,1.95 Z-score of the enrichment rate within one screen of 711 sequences,chain 1 N16V
3,1.34 Z-score of the enrichment rate within one screen of 711 sequences,chain 1 N16T
4,1.28 Z-score of the enrichment rate within one screen of 711 sequences,chain 1 N16E
5,0.929 Z-score of the enrichment rate within one screen of 711 sequences,chain 1 N16P
6,1.5 Z-score of the enrichment rate within one screen of 711 sequences,chain 1 N16G
7,2.16 Z-score of the enrichment rate within one screen of 711 sequences,chain 1 N16W
8,1.62 Z-score of the enrichment rate within one screen of 711 sequences,chain 1 N16C
9,1.43 Z-score of the enrichment rate within one screen of 711 sequences,chain 1 N16H
10,1.51 Z-score of the enrichment rate within one screen of 711 sequences,chain 1 A15Q
11,1.58 Z-score of the enrichment rate within one screen of 711 sequences,chain 1 A15T
12,0.806 Z-score of the enrichment rate within one screen of 711 sequences,chain 1 A15I
13,1.46 Z-score of the enrichment rate within one screen of 711 sequences,chain 1 A15S
14,1.84 Z-score of the enrichment rate within one screen of 711 sequences,chain 1 A15W
15,1.59 Z-score of the enrichment rate within one screen of 711 sequences,chain 1 A15F
16,1.42 Z-score of the enrichment rate within one screen of 711 sequences,chain 1 A15V
17,1.73 Z-score of the enrichment rate within one screen of 711 sequences,chain 1 A15K
18,1.37 Z-score of the enrichment rate within one screen of 711 sequences,chain 1 A15E
19,1.49 Z-score of the enrichment rate within one screen of 711 sequences,chain 1 A15C
20,0.323 Z-score of the enrichment rate within one screen of 711 sequences,chain 1 R7M
21,0.788 Z-score of the enrichment rate within one screen of 711 sequences,chain 1 R7K
22,0.221 Z-score of the enrichment rate within one screen of 711 sequences,chain 1 R7I
23,0.016 Z-score of the enrichment rate within one screen of 711 sequences,chain 1 R7A
24,-0.371 Z-score of the enrichment rate within one screen of 711 sequences,chain 1 R7E
25,0.478 Z-score of the enrichment rate within one screen of 711 sequences,chain 1 R7P

row,screen value,Variant
1,-0.481 Z-score of the enrichment rate within one screen of 711 sequences,chain 1 R7G
2,-0.0352 Z-score of the enrichment rate within one screen of 711 sequences,chain 1 R7N
3,-0.0451 Z-score of the enrichment rate within one screen of 711 sequences,chain 1 R7Q
4,0.194 Z-score of the enrichment rate within one screen of 711 sequences,chain 1 R7V
5,0.372 Z-score of the enrichment rate within one screen of 711 sequences,chain 1 R7L
6,0.186 Z-score of the enrichment rate within one screen of 711 sequences,chain 1 R7F
7,0.697 Z-score of the enrichment rate within one screen of 711 sequences,"chain 1 Q4A, chain 1 P8A"
8,-0.687 Z-score of the enrichment rate within one screen of 711 sequences,"chain 1 R5A, chain 1 L10A"
9,1.34 Z-score of the enrichment rate within one screen of 711 sequences,"chain 1 P3A, chain 1 N16A"
10,0.343 Z-score of the enrichment rate within one screen of 711 sequences,"chain 1 P8A, chain 1 Q11A"
11,1.11 Z-score of the enrichment rate within one screen of 711 sequences,"chain 1 P13A, chain 1 N16A"
12,-0.277 Z-score of the enrichment rate within one screen of 711 sequences,"chain 1 R7A, chain 1 P8A"
13,0.359 Z-score of the enrichment rate within one screen of 711 sequences,"chain 1 Q4A, chain 1 R5A"
14,-0.522 Z-score of the enrichment rate within one screen of 711 sequences,"chain 1 R5A, chain 1 L12A"
15,-0.492 Z-score of the enrichment rate within one screen of 711 sequences,"chain 1 R7A, chain 1 L12A"
16,-0.882 Z-score of the enrichment rate within one screen of 711 sequences,"chain 1 L10A, chain 1 L14A"
17,-0.742 Z-score of the enrichment rate within one screen of 711 sequences,"chain 1 T9A, chain 1 L12A"
18,0.357 Z-score of the enrichment rate within one screen of 711 sequences,"chain 1 P3A, chain 1 P8A"
19,-0.637 Z-score of the enrichment rate within one screen of 711 sequences,chain 1 L12E
20,0.938 Z-score of the enrichment rate within one screen of 711 sequences,chain 1 L12I
21,-0.457 Z-score of the enrichment rate within one screen of 711 sequences,chain 1 L12C
22,-0.637 Z-score of the enrichment rate within one screen of 711 sequences,chain 1 L12P
23,-0.321 Z-score of the enrichment rate within one screen of 711 sequences,chain 1 L12N
24,-0.205 Z-score of the enrichment rate within one screen of 711 sequences,chain 1 L12V
25,-0.706 Z-score of the enrichment rate within one screen of 711 sequences,chain 1 L12A

row,screen value,Variant
1,0.748 Z-score of the enrichment rate within one screen of 711 sequences,"chain 1 R5A, chain 1 P13A"
2,1.47 Z-score of the enrichment rate within one screen of 711 sequences,chain 1 Q4L
3,1.67 Z-score of the enrichment rate within one screen of 711 sequences,chain 1 Q4Y
4,1.26 Z-score of the enrichment rate within one screen of 711 sequences,chain 1 Q4P
5,1.4 Z-score of the enrichment rate within one screen of 711 sequences,chain 1 Q4F
6,1.36 Z-score of the enrichment rate within one screen of 711 sequences,chain 1 Q4I
7,0.257 Z-score of the enrichment rate within one screen of 711 sequences,"chain 1 R5A, chain 1 T9A"
8,1.25 Z-score of the enrichment rate within one screen of 711 sequences,chain 1 P6L
9,1.06 Z-score of the enrichment rate within one screen of 711 sequences,chain 1 P6F
10,1.12 Z-score of the enrichment rate within one screen of 711 sequences,chain 1 P6H
11,1.07 Z-score of the enrichment rate within one screen of 711 sequences,chain 1 P6T
12,1.29 Z-score of the enrichment rate within one screen of 711 sequences,chain 1 P6A
13,0.968 Z-score of the enrichment rate within one screen of 711 sequences,chain 1 P6V
14,1.26 Z-score of the enrichment rate within one screen of 711 sequences,chain 1 P6Q
15,0.713 Z-score of the enrichment rate within one screen of 711 sequences,chain 1 P6C
16,1.38 Z-score of the enrichment rate within one screen of 711 sequences,"chain 1 Q11A, chain 1 P13A"
17,-0.57 Z-score of the enrichment rate within one screen of 711 sequences,"chain 1 Q4A, chain 1 L10A"
18,0.772 Z-score of the enrichment rate within one screen of 711 sequences,chain 1 R5I
19,-0.21 Z-score of the enrichment rate within one screen of 711 sequences,chain 1 R5D
20,0.845 Z-score of the enrichment rate within one screen of 711 sequences,chain 1 R5W
21,0.07 Z-score of the enrichment rate within one screen of 711 sequences,chain 1 R5E
22,0.263 Z-score of the enrichment rate within one screen of 711 sequences,chain 1 R5A
23,0.568 Z-score of the enrichment rate within one screen of 711 sequences,chain 1 R5V
24,0.594 Z-score of the enrichment rate within one screen of 711 sequences,chain 1 R5P
25,0.535 Z-score of the enrichment rate within one screen of 711 sequences,"chain 1 P3A, chain 1 R5A"

row,screen value,Variant
1,0.866 Z-score of the enrichment rate within one screen of 711 sequences,chain 1 L14K
2,0.48 Z-score of the enrichment rate within one screen of 711 sequences,chain 1 L14A
3,0.833 Z-score of the enrichment rate within one screen of 711 sequences,chain 1 L14R
4,1.9 Z-score of the enrichment rate within one screen of 711 sequences,chain 1 L14I
5,0.409 Z-score of the enrichment rate within one screen of 711 sequences,chain 1 L14D
6,1.33 Z-score of the enrichment rate within one screen of 711 sequences,chain 1 L14F
7,0.9 Z-score of the enrichment rate within one screen of 711 sequences,chain 1 L14T
8,1.2 Z-score of the enrichment rate within one screen of 711 sequences,"chain 1 Q4A, chain 1 P13A"
9,1.95 Z-score of the enrichment rate within one screen of 711 sequences,chain 1 P13D
10,1.25 Z-score of the enrichment rate within one screen of 711 sequences,chain 1 P13C
11,1.38 Z-score of the enrichment rate within one screen of 711 sequences,chain 1 P13L
12,1.44 Z-score of the enrichment rate within one screen of 711 sequences,chain 1 P13H
13,1.22 Z-score of the enrichment rate within one screen of 711 sequences,chain 1 P13S
14,1.52 Z-score of the enrichment rate within one screen of 711 sequences,chain 1 P13Q
15,1.87 Z-score of the enrichment rate within one screen of 711 sequences,chain 1 P13N
16,1.22 Z-score of the enrichment rate within one screen of 711 sequences,chain 1 P13V
17,1.15 Z-score of the enrichment rate within one screen of 711 sequences,chain 1 T9Y
18,0.507 Z-score of the enrichment rate within one screen of 711 sequences,chain 1 T9E
19,1.24 Z-score of the enrichment rate within one screen of 711 sequences,chain 1 T9L
20,1.43 Z-score of the enrichment rate within one screen of 711 sequences,chain 1 T9F
21,1.21 Z-score of the enrichment rate within one screen of 711 sequences,chain 1 T9W
22,1.34 Z-score of the enrichment rate within one screen of 711 sequences,chain 1 T9H
23,1.27 Z-score of the enrichment rate within one screen of 711 sequences,chain 1 T9C
24,1.06 Z-score of the enrichment rate within one screen of 711 sequences,chain 1 T9M
25,0.994 Z-score of the enrichment rate within one screen of 711 sequences,chain 1 T9Q

# Reference: article doi:10.1101/2021.08.20.457142
